Experimental data reported in paper PMC11708034.

B1: CDTa_(60-463) (domain or fragment)
chain: LKDKEKAKEWERKEAERIEQKLERSEKEALESYKKDSVEISKYSQTRNYFYDYQIEANSREKEYKELRNAISKNKIDKPMYVYYFESPEKFAFNKVIRTENQNEISLEKFNEFKETIQNKLFKQDGFKDISLYEPGKGDEKPTPLLMHLKLPRNTGMLPYTNTNNVSTLIEQGYSIKIDKIVRIVIDGKHYIKAEASVVSSLDFKDDVSKGDSWGKANYNDWSNKLTPNELADVNDYMRGGYTAINNYLISNGPVNNPNPELDSKITNIENALKREPIPTNLTVYRRSGPQEFGLTLTSPEYDFNKLENIDAFKSKWEGQALSYPNFISTSIGSVNMSAFAKRKIVLRITIPKGSPGAYLSAIPGYAGEYEVLLNHGSKFKINKIDSYKDGTITKLIVDATLIP
B2: CDTa_(40-463) (domain or fragment)
chain: YSEKVCNTTYKAPIERPEDFLKDKEKAKEWERKEAERIEQKLERSEKEALESYKKDSVEISKYSQTRNYFYDYQIEANSREKEYKELRNAISKNKIDKPMYVYYFESPEKFAFNKVIRTENQNEISLEKFNEFKETIQNKLFKQDGFKDISLYEPGKGDEKPTPLLMHLKLPRNTGMLPYTNTNNVSTLIEQGYSIKIDKIVRIVIDGKHYIKAEASVVSSLDFKDDVSKGDSWGKANYNDWSNKLTPNELADVNDYMRGGYTAINNYLISNGPVNNPNPELDSKITNIENALKREPIPTNLTVYRRSGPQEFGLTLTSPEYDFNKLENIDAFKSKWEGQALSYPNFISTSIGSVNMSAFAKRKIVLRITIPKGSPGAYLSAIPGYAGEYEVLLNHGSKFKINKIDSYKDGTITKLIVDATLIP
B3: CDTa_(50-463) (domain or fragment)
chain: KAPIERPEDFLKDKEKAKEWERKEAERIEQKLERSEKEALESYKKDSVEISKYSQTRNYFYDYQIEANSREKEYKELRNAISKNKIDKPMYVYYFESPEKFAFNKVIRTENQNEISLEKFNEFKETIQNKLFKQDGFKDISLYEPGKGDEKPTPLLMHLKLPRNTGMLPYTNTNNVSTLIEQGYSIKIDKIVRIVIDGKHYIKAEASVVSSLDFKDDVSKGDSWGKANYNDWSNKLTPNELADVNDYMRGGYTAINNYLISNGPVNNPNPELDSKITNIENALKREPIPTNLTVYRRSGPQEFGLTLTSPEYDFNKLENIDAFKSKWEGQALSYPNFISTSIGSVNMSAFAKRKIVLRITIPKGSPGAYLSAIPGYAGEYEVLLNHGSKFKINKIDSYKDGTITKLIVDATLIP
B4: CDTa_(67-463) (domain or fragment)
chain: KEWERKEAERIEQKLERSEKEALESYKKDSVEISKYSQTRNYFYDYQIEANSREKEYKELRNAISKNKIDKPMYVYYFESPEKFAFNKVIRTENQNEISLEKFNEFKETIQNKLFKQDGFKDISLYEPGKGDEKPTPLLMHLKLPRNTGMLPYTNTNNVSTLIEQGYSIKIDKIVRIVIDGKHYIKAEASVVSSLDFKDDVSKGDSWGKANYNDWSNKLTPNELADVNDYMRGGYTAINNYLISNGPVNNPNPELDSKITNIENALKREPIPTNLTVYRRSGPQEFGLTLTSPEYDFNKLENIDAFKSKWEGQALSYPNFISTSIGSVNMSAFAKRKIVLRITIPKGSPGAYLSAIPGYAGEYEVLLNHGSKFKINKIDSYKDGTITKLIVDATLIP

Legend:
[1] = target: CDTb heptamer (Clostridioides difficile) (UniProt O32739); test: cryo-EM structure
[2] = target: biotinylated CDTb oligomers (Clostridioides difficile) (UniProt O32739); test: BLI; biotinylated CDTb oligomers saturated on streptavidin biosensors (Octet Red 96e); CDTa 200 to 0.032 nM in solution; 20 mM HEPES pH 8.0, 100 mM NaCl, blocked with 0.01% Igepal CA-630 and 0.1% BSA; 5 min association, 10 min dissociation; kON from the slope of kobs against concentration, KD from the signal at equilibrium (sigmoidal dose-response fit)
[3] = target: biotinylated CDTb oligomers (Clostridioides difficile) (UniProt O32739); test: BLI; […]; 20 mM HEPES pH 8.0, 100 mM NaCl, […]; 5 min association, 10 min dissociation; […]

| Molecule | stoichiometry N [1] | Kd [2] [nM] | kon [2] [M⁻¹ s⁻¹] | Kd [3] [nM] | kon [3] [M⁻¹ s⁻¹] |
| --- | --- | --- | --- | --- | --- |
| CDTb heptamer (from UniProt O32739 45-876) (complex) | 7 |  |  |  |  |
| B1 |  | 9.5 | 800000 |  |  |
| B2 |  | 9 | 1.2e+06 |  |  |
| B3 |  |  |  | 5.7 | 1.4e+06 |
| B4 |  |  |  | 18.5 | 400000 |
